IntAct's records for PubMed 21572041

B1: C-type lectin domain family 2 member D (Homo sapiens), Q9UHP7-1 (parent)
chain: MHDSNNVEKDITPSELPANPGCLHSKEHSIKATLIWRLFFLIMFLTIIVCGMVAALSAIRANCHQEPSVCLQAACPESWIGFQRKCFYFSDDTKNWTSSQRFCDSQDADLAQVESFQELNFLLRYKGPSDHWIGLSREQGQPWKWINGTEWTRQFPILGAGECAYLNDKGASSARHYTERKWICSKSDIHV

Variants of: B1
Conditions: with klrb1_human KLRB1, Q12918
Sequence of klrb1_human KLRB1, Q12918 (Q12918 whole entry): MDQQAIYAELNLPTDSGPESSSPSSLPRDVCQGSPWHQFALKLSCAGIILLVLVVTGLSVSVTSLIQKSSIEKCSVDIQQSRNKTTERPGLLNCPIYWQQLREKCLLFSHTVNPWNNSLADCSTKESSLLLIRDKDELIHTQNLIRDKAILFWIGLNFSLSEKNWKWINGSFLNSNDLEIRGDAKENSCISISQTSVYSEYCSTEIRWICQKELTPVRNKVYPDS

effect of a mutation on the interaction | Variant
decreasing interaction strength | N167A
disrupting interaction strength | K169E
decreasing interaction strength | Y165A
disrupting interaction strength | R175E
disrupting interaction strength | R180E
disrupting interaction strength | K181E

Variants of: B1
Conditions: with klrb1_human KLRB1, Q12918
Remark: another data set of the same source

effect of a mutation on the interaction | Variant
increasing interaction strength | K169E
